The record followed here is patent publication US20240043528A1, “NANOBODY-OGA FUSIONS AND USES THEREOF” (President and Fellows of Harvard College, priority 2020, published 2024).

The subject of this assay is O-GlcNAcylated proteome. Nature of the assay: Quantitative TMT mass spectrometry of enriched O-GlcNAcylated proteome. It counts as cell-based, human. Conditions: co-expression of GFP-Sp1, versus N2(D174N)+C3, n=4. How it is done:
Purification of GalT1 (Y289L) enzyme and labeling of O-GlcNAcylated proteins with GalNAz were performed according to the procedure of Hsieh-Wilson and co-workers (Thompson, J. W., Griffin, M. E. & Hsieh-Wilson, L. C. Methods for the Detection, Study, and Dynamic Profiling of O-GlcNAc Glycosylation. Methods Enzymol. 2018, 598, 101-135). Briefly, cell samples in 6-well plates or 15-cm dishes were harvested and washed by PBS once. The lysis buffer (PBS with 2% SDS) was added into cell pellets and heated for 5 min at 95° C., followed by the sonication to sheer DNA. Protein concentrations were determined by BCA assay. Cell lysates were reduced and alkylated with 25 mM DTT at 95° C. for 5 min and 50 mM iodoacetamide at room temperature for 1 h respectively. Proteins were precipitated by the methanol/chloroform solution (aqueous phase:CH3OH:CHCl3=4:4:1) and resuspended in 1% SDS, 20 mM HEPES (pH 7.9) buffer with a concentration of 3.75 mg/mL. For 150 μg proteins, H2O (49 μL), 2.5×GalT labeling buffer (80 μL, final concentrations: 50 mM NaCl, 20 mM HEPES, 2% NP-40, pH 7.9), 100 mM MnCl2 (11 μL), 500 μM UDP-GalNAz (10 μL), 2 mg/mL GalT1 (Y289L) (10 μL) were added into cell lysates orderly. […]
For quantitative proteomics, after reaction with Biotin-Alkyne probe, proteins were precipitated and resuspended in 400 μL PBS containing 2% SDS. […]

B1: split OGA (N2+C3): split OGA fragments N2 and C3 without nanobody (protein)
chain 1: MEQKLISEEDLAIAMVQKESQATLEERESELSSNPAASAGASLEPPAAPAPGEDNPAGAGGAAVAGAAGGARRFLCGVVEGFYGRPWVMEQRKELFRRLQKWELNTYLYAPKDDYKHRMFWREMYSVEEAEQLMTLISAAREYEIEFIYAISPGLDITFSNPKEVSTLKRKLDQVSQFGCRSFALLFDDIDHNMCAADKEVFSSFAHAQVSITNEIYQYLGEPETFLFCPTEYCGTFCYPNVSQSPYLRTVGEKLLPGIEVLWTGPKVVSKEIPVESIEEVSKIIKRAPVIWDNIHANDYDQKRLFLGPYKGRSTELIPRLKGVLTNPNCEFEANYVAIHTLATWYKSNMNGVRKDVVMTDSEDSTVSIQIKLENEGSDEDIETDVLYSPQMALKLALTEWLQEFGVPHQYSSR
chain 2: MAYPYDVPDYAAIAEKPLYTAEPVTLEDLQLLADLFYLPYEHGPKGAQMLREFQWLRANSSVVSVNCKGKDSEKIEEWRSRAAKFEEMCGLVMGMFTRLSNCANRTILYDMYSYVWDIKSIMSMVKSFVQWLGCRSHSSAQFLIGDQEPWAFRGGLAGEFQRLLPIDGANDLFFQPP
Consider B1, for which the “global O-GlcNAc proteome versus inactive form” value is “no significant difference from that of the inactive form”.
